Test results: publication PMC3392456
Like-named read-outs stand apart in the source and are kept apart here. One block for each molecule: values may come before it.

What was measured:
[1] = biological target: S. pombe Mre11 catalytic domain, SpMre11_(15–413) (S. pombe); assay: crystal structure
[2] = biological target: S. pombe Mre11 catalytic domain, SpMre11_(15–413) (S. pombe); assay: crystal structure; remark: listed apart in the source
[3] = biological target: SpMre11^cd R85A (S. pombe)
[4] = biological target: S. pombe Mre11 catalytic domain, SpMre11_(15–413) (S. pombe); assay: crystal structure; remark: listed apart in the source

- stoichiometry N [1]: 2
- stoichiometry N [2]: 2
Molecule: S. pombe Mre11 catalytic domain, SpMre11_(15–413) (domain or fragment)

- stoichiometry N [3]: 2
Molecule: SpMre11^cd R85A (domain or fragment)

- stoichiometry N (Nbs1 per Mre11 (2:2)) [4]: 1
B1: S. pombe Nbs1 Mre11 interacting region, residues 474–531 (domain or fragment)
chain: ESEDDKAFEENRRLRNLGSVEYIRIMSSEKSNANSRHTSKYYSGRKNFKKFQKKASQK
